Measurements: patent US20120058906A1

Assays:
[1] = target: rHuman CD44/Fc Chimera, CF (R&D Systems Cat#3660-CD) (human) (UniProt P16070); assay: ECL (MSD multi-spot), Fab […]; blank 162
[2] = target: rHuman EGF R/Fc Chimera, CF (R&D Systems Cat#344-ER) (human) (UniProt P00533); assay: ECL (MSD multi-spot), Fab […]; blank 162
[3] = target: rHuman ErbB2/Fc Chimera, CF (R&D Systems Cat#1129-ER) (human) (UniProt P04626); assay: ECL (MSD multi-spot), Fab […]; blank 162
[4] = target: rHuman Erythropoietin R/Fc Chimera, CF (R&D Systems Cat#963-ER) (human) (UniProt P19235); assay: ECL (MSD multi-spot), Fab […]; blank 162
rHuman Erythropoietin R/Fc Chimera, CF (R&D Systems Cat#963-ER) (human), sequence (P19235 25-250, change not shown): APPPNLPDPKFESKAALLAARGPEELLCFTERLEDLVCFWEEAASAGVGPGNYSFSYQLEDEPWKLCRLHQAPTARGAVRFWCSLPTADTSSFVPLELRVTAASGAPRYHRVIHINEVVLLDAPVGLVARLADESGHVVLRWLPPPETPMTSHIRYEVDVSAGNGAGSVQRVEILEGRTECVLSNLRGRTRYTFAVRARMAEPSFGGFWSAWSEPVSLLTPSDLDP

[5] = target: rHuman HGF R/c-MET/Fc Chimera, CF (R&D Systems Cat#358-MT/CF) (human) (UniProt P08581); assay: ECL (MSD multi-spot), Fab […]; blank 162
[6] = target: rHuman P-Cadherin/Fc Chimera, CF (R&D Systems Cat#861-PC) (human) (UniProt P22223); assay: ECL (MSD multi-spot), Fab […]; blank 162
[7] = target: rHuman CD44/Fc Chimera, CF (R&D Systems Cat#3660-CD) (human) (UniProt P16070); assay: ECL (MSD multi-spot), Fab 340 nM; blank 554
[8] = target: rHuman EGF R/Fc Chimera, CF (R&D Systems Cat#344-ER) (human) (UniProt P00533); assay: ECL (MSD multi-spot), Fab 340 nM; blank 554
[9] = target: rHuman ErbB2/Fc Chimera, CF (R&D Systems Cat#1129-ER) (human) (UniProt P04626); assay: ECL (MSD multi-spot), Fab 340 nM; blank 554
[10] = target: rHuman Erythropoietin R/Fc Chimera, CF (R&D Systems Cat#963-ER) (human) (UniProt P19235); assay: ECL (MSD multi-spot), Fab 340 nM; blank 554
[11] = target: rHuman HGF R/c-MET/Fc Chimera, CF (R&D Systems Cat#358-MT/CF) (human) (UniProt P08581); assay: ECL (MSD multi-spot), Fab 340 nM; blank 554
[12] = target: rHuman IGF-1 sR (IGF-1 sR), CF (R&D Systems Cat#391-GR) (human) (UniProt P08069); assay: ECL (MSD multi-spot), Fab 340 nM; blank 554
[13] = target: rHuman Notch-1/Fc Chimera, CF (R&D Systems Cat#3647-TK) (human) (UniProt P46531); assay: ECL (MSD multi-spot), Fab 340 nM; blank 554
[14] = target: rHuman P-Cadherin/Fc Chimera, CF (R&D Systems Cat#861-PC) (human) (UniProt P22223); assay: ECL (MSD multi-spot), Fab 340 nM; blank 554
[15] = target: rHuman CD44/Fc Chimera, CF (R&D Systems Cat#3660-CD) (human) (UniProt P16070); assay: ECL (MSD multi-spot), Fab 85.0 nM; blank 292
[16] = target: rHuman EGF R/Fc Chimera, CF (R&D Systems Cat#344-ER) (human) (UniProt P00533); assay: ECL (MSD multi-spot), Fab 85.0 nM; blank 292
[17] = target: rHuman ErbB2/Fc Chimera, CF (R&D Systems Cat#1129-ER) (human) (UniProt P04626); assay: ECL (MSD multi-spot), Fab 85.0 nM; blank 292
[18] = target: rHuman Erythropoietin R/Fc Chimera, CF (R&D Systems Cat#963-ER) (human) (UniProt P19235); assay: ECL (MSD multi-spot), Fab 85.0 nM; blank 292
[19] = target: rHuman HGF R/c-MET/Fc Chimera, CF (R&D Systems Cat#358-MT/CF) (human) (UniProt P08581); assay: ECL (MSD multi-spot), Fab 85.0 nM; blank 292
[20] = target: rHuman IGF-1 sR (IGF-1 sR), CF (R&D Systems Cat#391-GR) (human) (UniProt P08069); assay: ECL (MSD multi-spot), Fab 85.0 nM; blank 292
[21] = target: rHuman Notch-1/Fc Chimera, CF (R&D Systems Cat#3647-TK) (human) (UniProt P46531); assay: ECL (MSD multi-spot), Fab 85.0 nM; blank 292
[22] = target: rHuman P-Cadherin/Fc Chimera, CF (R&D Systems Cat#861-PC) (human) (UniProt P22223); assay: ECL (MSD multi-spot), Fab 85.0 nM; blank 292
[23] = target: rHuman ErbB2/Fc Chimera, CF (R&D Systems Cat#1129-ER) (human) (UniProt P04626); assay: ECL (MSD multi-spot) screen, antigen spotted on plate, Fab at 0.34 uM; blank spot 356
[24] = target: rHuman Erythropoietin R/Fc Chimera, CF (R&D Systems Cat#963-ER) (human) (UniProt P19235); assay: as above
[25] = target: rHuman HGF R/c-MET/Fc Chimera, CF (R&D Systems Cat#358-MT/CF) (human) (UniProt P08581); assay: as above
[26] = target: rHuman IGF-1 sR, CF (R&D Systems Cat#391-GR) (human) (UniProt P08069); assay: as above
[27] = target: rHuman Notch-1/Fc Chimera, CF (R&D Systems Cat#3647-TK) (human) (UniProt P46531); assay: as above
[28] = target: rHuman P-Cadherin/Fc Chimera, CF (R&D Systems Cat#861-PC) (human) (UniProt P22223); assay: as above

ECL signal [1]: 522 ECL signal
ECL signal [2]: 528 ECL signal
ECL signal [3]: 866 ECL signal
ECL signal [4]: 494 ECL signal
ECL signal [5]: 607 ECL signal
ECL signal [6]: 421 ECL signal
ECL signal [7]: 959 ECL signal
ECL signal [8]: 1210 ECL signal
ECL signal [9]: 1230 ECL signal
ECL signal [10]: 1260 ECL signal
ECL signal [11]: 1240 ECL signal
ECL signal [12]: 1040 ECL signal
ECL signal [13]: 1210 ECL signal
ECL signal [14]: 1160 ECL signal
ECL signal [15]: 693 ECL signal
ECL signal [16]: 1000 ECL signal
ECL signal [17]: 844 ECL signal
ECL signal [18]: 817 ECL signal
ECL signal [19]: 998 ECL signal
ECL signal [20]: 891 ECL signal
ECL signal [21]: 780 ECL signal
ECL signal [22]: 709 ECL signal
ECL signal [23]: 900
ECL signal [24]: 907
ECL signal [25]: 914
ECL signal [26]: 871
ECL signal [27]: 912
ECL signal [28]: 935
Substance: Fab VH4-34_IGHD7-27*01_IGHJ4*01 & V4-6_IGLJ4*01
